Test results published in patent US20260242478A1 (published 2026).
Where no end group is shown, it is not given here.

Experiments:
[1] = molecular target: T1, Anti-PSMA Fab (SEQ ID NOs: 19, 20); test: phage binding ELISA; biotinylated PSMA Fab on neutravidin plate, clonal phage detected with anti-M13-HRP
T1 construct: Biotinylated and captured on neutravidin coated plates in the phage ELISA; also called 006 PSMA Fab
Description: (§1) Clonal phage were harvested as crude supernatants and screened via standard ELISAs. […] Prior to the addition of clonal phage. wells were incubated with blocking buffer and PSMA antigen or blocking buffer alone. Without washing or aspirating, clonal phage supernatants were then added to the wells and incubated for a short time. Wells were then washed followed by detection of bound phage using a horse radish conjugated anti-M13 antibody.

[2] = molecular target: T1, Anti-PSMA Fab (SEQ ID NOs: 19, 20); test: phage binding ELISA; Fab-coated wells pre-incubated with PSMA antigen as competitor, anti-M13-HRP detection;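 note: clonal phage supernatants screened, with reference wells given blocking buffer only (no PSMA antigen) before phage were added for a brief incubation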
Description: as §1

[3] = molecular target: T2, Anti-PSMA Fab (SEQ ID NOs: 19, 20); test: phage ELISA; biotinylated PSMA Fab on neutravidin plate, clonal phage supernatant, anti-M13 HRP detection;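 note: wells preincubated with PSMA antigen in blocking buffer or with blocking buffer only before clonal phage were added for a short incubation, then bound phage detected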
T2 construct: Biotinylated PSMA Fab captured on neutravidin coated plates in the phage ELISA; also called 006 PSMA Fab
Description: as §1

[4] = molecular target: T2, Anti-PSMA Fab (SEQ ID NOs: 19, 20); test: phage ELISA; PSMA Fab on plate pre-incubated with PSMA antigen as competitor, anti-M13 HRP detection;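 note: crude clonal phage supernatants added to Fab-coated wells still holding PSMA antigen in blocking buffer, with bound phage as read-out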
Description: as §1

[5] = molecular target: T3, Anti-PSMA Fab (SEQ ID NOs: 19, 20); test: phage ELISA; biotinylated PSMA Fab captured on neutravidin plate, clonal phage supernatant, anti-M13 HRP detection
T3 construct: Biotinylated and captured on neutravidin coated plates in the phage ELISA; also called 006 PSMA Fab
Description: as §1

[6] = molecular target: T3, Anti-PSMA Fab (SEQ ID NOs: 19, 20); test: phage ELISA; captured PSMA Fab pre-incubated with PSMA antigen as competitor, anti-M13 HRP detection
Description: as §1

Row | Binder | Phage binding ELISA, Anti-PSMA Fab (SEQ ID NOs: 19, 20) signal [3] | Phage binding ELISA, Anti-PSMA Fab signal in the presence of PSMA [4] | Phage binding ELISA, Anti-PSMA Fab (SEQ ID NOs: 19, 20) signal [5] | Phage binding ELISA, Anti-PSMA Fab signal in the presence of PSMA [6] | other results
1 | LDKLCIPSWMCWSH (tested as crude clonal phage supernatant) [Phage-2181] |  |  |  |  | Anti-PSMA Fab (SEQ ID NOs: 19, 20) signal [1]: 1.64; Anti-PSMA Fab signal in the presence of PSMA [2]: 0.0713
2 | VHIWCIPQWMCMDR (Clonal phage of the Peptide-180 library, tested as crude supernatant; not shown: fused to the pIII filament of the bacteriophage) [Phage-2150] | 1.68 | 0.202 |  |  | 
3 | ETKWCFPPWMCAGS (Clonal phage of the Peptide-180 library, tested as crude supernatant; not shown: fused to the pIII filament of the bacteriophage) [Phage-2159] | 1.66 | 0.337 |  |  | 
4 | VHMRCIPEWMCQVF (tested as crude clonal phage supernatant) [Phage-2183] |  |  |  |  | Anti-PSMA Fab (SEQ ID NOs: 19, 20) signal [1]: 1.63; Anti-PSMA Fab signal in the presence of PSMA [2]: 0.071
5 | GDRLCVPEWMCEML (Clonal phage of the peptide-180 library, tested as crude supernatant; not shown: pIII of the bacteriophage, to which the peptide is fused) [Phage-2171] |  |  | 1.65 | 0.0685 | 
6 | IEKWCTPAWMCYGI (Clonal phage of the Peptide-180 library, tested as crude supernatant; not shown: fused to the pIII filament of the bacteriophage) [Phage-2152] | 1.68 | 0.077 |  |  | 
7 | SLHLCIPQWMCGIS (cysteine pairing not given here; also: displayed on bacteriophage as fusion to pIII, tested as crude clonal phage supernatant) [Phage-2177] |  |  |  |  | Anti-PSMA Fab (SEQ ID NOs: 19, 20) signal [1]: 1.64; Anti-PSMA Fab signal in the presence of PSMA [2]: 0.0806
8 | DVIRCTPDWMCTGF (Clonal phage of the Peptide-180 library, tested as crude supernatant; not shown: fused to the pIII filament of the bacteriophage) [Phage-2157] | 1.66 | 0.064 |  |  | 
9 | VQKWCVPEWMCGSW (Clonal phage of the peptide-180 library, tested as crude supernatant; not shown: pIII of the bacteriophage, to which the peptide is fused) [Phage-2167] |  |  | 1.65 | 0.0837 | 
10 | LIKWCTPPWMCEQL (tested as crude clonal phage supernatant) [Phage-2180] |  |  |  |  | Anti-PSMA Fab (SEQ ID NOs: 19, 20) signal [1]: 1.64; Anti-PSMA Fab signal in the presence of PSMA [2]: 0.0655
11 | DIRWCIPDWMCTET (Clonal phage of the peptide-180 library, tested as crude supernatant; not shown: pIII of the bacteriophage, to which the peptide is fused) [Phage-2164] |  |  | 1.65 | 0.0725 | 
12 | VIPWCIPEWMCTAS (Clonal phage of the peptide-180 library, tested as crude supernatant; not shown: pIII of the bacteriophage, to which the peptide is fused) [Phage-2175] |  |  | 1.64 | 0.0692 | 
13 | EMKWCIPDWMCAAG (Clonal phage of the Peptide-180 library, tested as crude supernatant; not shown: fused to the pIII filament of the bacteriophage) [Phage-2161] | 1.66 | 0.0716 |  |  | 
14 | ITNWCKPAWMCEVS (Clonal phage of the Peptide-180 library, tested as crude supernatant; not shown: fused to the pIII filament of the bacteriophage) [Phage-2149] | 1.68 | 0.114 |  |  | 
15 | MAMMCIPPWMCDTM (Clonal phage of the peptide-180 library, tested as crude supernatant; not shown: pIII of the bacteriophage, to which the peptide is fused) [Phage-2172] |  |  | 1.65 | 0.0889 | 
16 | TEKWCIPEWMCAHQ (cysteine pairing not given here; also: displayed on bacteriophage as fusion to pIII, tested as crude clonal phage supernatant) [Phage-2184] |  |  |  |  | Anti-PSMA Fab (SEQ ID NOs: 19, 20) signal [1]: 1.63; Anti-PSMA Fab signal in the presence of PSMA [2]: 0.0839
17 | HEKLCIPWWMCEDH (tested as crude clonal phage supernatant) [Phage-2182] |  |  |  |  | Anti-PSMA Fab (SEQ ID NOs: 19, 20) signal [1]: 1.64; Anti-PSMA Fab signal in the presence of PSMA [2]: 0.0868
18 | EVKLCRPPWMCEIF (Clonal phage of the peptide-180 library, tested as crude supernatant; not shown: pIII of the bacteriophage, to which the peptide is fused) [Phage-2162] |  |  | 1.66 | 0.0633 | 
19 | EHKWCIPDWMCMVA (Clonal phage of the Peptide-180 library, tested as crude supernatant; not shown: fused to the pIII filament of the bacteriophage) [Phage-2153] | 1.67 | 0.0728 |  |  | 

Row | Binder | Phage binding ELISA, Anti-PSMA Fab (SEQ ID NOs: 19, 20) signal [3] | Phage binding ELISA, Anti-PSMA Fab signal in the presence of PSMA [4] | Phage binding ELISA, Anti-PSMA Fab (SEQ ID NOs: 19, 20) signal [5] | Phage binding ELISA, Anti-PSMA Fab signal in the presence of PSMA [6] | other results
20 | GEKWCIPEWMCVHL (Clonal phage of the peptide-180 library, tested as crude supernatant; not shown: pIII of the bacteriophage, to which the peptide is fused) [Phage-2168] |  |  | 1.65 | 0.065 | 
21 | VEKWCIPQWMCVSQ (Clonal phage of the Peptide-180 library, tested as crude supernatant; not shown: fused to the pIII filament of the bacteriophage) [Phage-2147] | 1.69 | 0.0673 |  |  | 
22 | ENKWCIPTWMCAHE (cysteine pairing not given here; also: displayed on phage, fused to pIII, Clonal phage of the peptide-180 library, tested as crude supernatant; not shown: pIII of the bacteriophage, to which the peptide is fused) [Phage-2173] |  |  | 1.64 | 0.0646 | 
23 | ESMLCRPVWMCVGF (Clonal phage of the peptide-180 library, tested as crude supernatant; not shown: pIII of the bacteriophage, to which the peptide is fused) [Phage-2169] |  |  | 1.65 | 0.0711 | 
24 | YEIRCIPPWMCAFD (Clonal phage of the Peptide-180 library, tested as crude supernatant; not shown: fused to the pIII filament of the bacteriophage) [Phage-2151] | 1.68 | 0.117 |  |  | 
25 | ITKWCTPAWMCAHL (cysteine pairing not given here; also: displayed on bacteriophage as fusion to pIII, tested as crude clonal phage supernatant) [Phage-2178] |  |  |  |  | Anti-PSMA Fab (SEQ ID NOs: 19, 20) signal [1]: 1.64; Anti-PSMA Fab signal in the presence of PSMA [2]: 0.0904
26 | EGRWCIPSWMCVGV (Clonal phage of the Peptide-180 library, tested as crude supernatant; not shown: fused to the pIII filament of the bacteriophage) [Phage-2155] | 1.67 | 0.0956 |  |  | 
27 | VEHWCTPRWMCRGF (Clonal phage of the peptide-180 library, tested as crude supernatant; not shown: pIII of the bacteriophage, to which the peptide is fused) [Phage-2176] |  |  | 1.64 | 0.0605 | 
28 | DENWCKPLWMCKGF (Clonal phage of the peptide-180 library, tested as crude supernatant; not shown: pIII of the bacteriophage, to which the peptide is fused) [Phage-2170] |  |  | 1.65 | 0.105 | 
29 | AMHWCIPKWMCETS (Clonal phage of the Peptide-180 library, tested as crude supernatant; not shown: fused to the pIII filament of the bacteriophage) [Phage-2160] | 1.66 | 0.141 |  |  | 
30 | GSHWCIPPWMCQMS (Clonal phage of the peptide-180 library, tested as crude supernatant; not shown: pIII of the bacteriophage, to which the peptide is fused) [Phage-2163] |  |  | 1.66 | 0.0821 | 
31 | YVNWCTPEWMCVGF (Clonal phage of the peptide-180 library, tested as crude supernatant; not shown: pIII of the bacteriophage, to which the peptide is fused) [Phage-2174] |  |  | 1.64 | 0.0598 | 
32 | EPKLCRPAWMCVGM (tested as crude clonal phage supernatant) [Phage-2179] |  |  |  |  | Anti-PSMA Fab (SEQ ID NOs: 19, 20) signal [1]: 1.64; Anti-PSMA Fab signal in the presence of PSMA [2]: 0.0704
33 | FERWCIPAWMCQSD (Clonal phage of the Peptide-180 library, tested as crude supernatant; not shown: fused to the pIII filament of the bacteriophage) [Phage-2158] | 1.66 | 0.066 |  |  | 
34 | IMKLCMPPWMCAAM (Clonal phage of the Peptide-180 library, tested as crude supernatant; not shown: fused to the pIII filament of the bacteriophage) [Phage-2148] | 1.68 | 0.0907 |  |  | 
35 | LDKWCTPEWMCWGI (Clonal phage of the Peptide-180 library, tested as crude supernatant; not shown: fused to the pIII filament of the bacteriophage) [Phage-2154] | 1.67 | 0.0536 |  |  | 
36 | VSKWCTPEWMCTGF (Clonal phage of the Peptide-180 library, tested as crude supernatant; not shown: fused to the pIII filament of the bacteriophage) [Phage-2156] | 1.67 | 0.0826 |  |  | 
37 | VVPWCIPVWMCNSQ (Clonal phage of the peptide-180 library, tested as crude supernatant; not shown: pIII of the bacteriophage, to which the peptide is fused) [Phage-2165] |  |  | 1.65 | 0.0957 | 
38 | YEKWCTPAWMCEYQ (Clonal phage of the peptide-180 library, tested as crude supernatant; not shown: pIII of the bacteriophage, to which the peptide is fused) [Phage-2166] |  |  | 1.65 | 0.0648 | 
